Tested on: IL-18
Assay: IL-18 levels in small intestine and serum after oral rhLF or bLF (ELISA)
Assay type: in vivo, mice
Description: Recombinant human lactoferrin and bovine lactoferrin were orally administered to mice, and the production of IL-18 in the small intestine was measured.
Mice were treated for three days daily with 65 mg/kg/day of rhLF, 300 mg/kg/day of rhLF or 300 mg/kg/day of bLF. For a control, mice were only administered the pharmaceutical carrier. Twenty-four hours following administration of the LF or control for 3 days, animals were weighed and blood and serum were collected. Serum was used for cytokine ELISA assays.
Also, at these time points, animals were sacrificed and the small intestinal tissue was removed for further analysis. Small intestinal epithelium was homogenized using a lysis buffer consisting of PBS, 1% Nonidet P-40, 0.5% sodium deoxycholate, and 0.1% sodium dodecyl sulphate containing 10 μg/ml PhenylMetheylsulfonyl fluoride. Homogenate was centrifuged at 15,000 rpm for 10 minutes and the supernatant stored at −80 C till it was tested for IL-18 levels.

[1] = oral 300 mg/kg/day for three days
[2] = oral 300 mg/kg/day for three days, 24 h after last dose

B1: bLF: bovine lactoferrin, orally administered comparator (protein, UniProt P24627 20-708, looked up)
Lactotransferrin: APRKNVRWCTISQPEWFKCRRWQWRMKKLGAPSITCVRRAFALECIRAIAEKKADAVTLDGGMVFEAGRDPYKLRPVAAEIYGTKESPQTHYYAVAVVKKGSNFQLDQLQGRKSCHTGLGRSAGWIIPMGILRPYLSWTESLEPLQGAVAKFFSASCVPCIDRQAYPNLCQLCKGEGENQCACSSREPYFGYSGAFKCLQDGAGDVAFVKETTVFENLPEKADRDQYELLCLNNSRAPVDAFKECHLAQVPSHAVVARSVDGKEDLIWKLLSKAQEKFGKNKSRSFQLFGSPPGQRDLLFKDSALGFLRIPSKVDSALYLGSRYLTTLKNLRETAEEVKARYTRVVWCAVGPEEQKKCQQWSQQSGQNVTCATASTTDDCIVLVLKGEADALNLDGGYIYTAGKCGLVPVLAENRKSSKHSSLDCVLRPTEGYLAVAVVKKANEGLTWNSLKDKKSCHTAVDRTAGWNIPMGLIVNQTGSCAFDEFFSQSCAPGADPKSRLCALCAGDDQGLDKCVPNSKEKYYGYTGAFRCLAEDVGDVAFVKNDTVWENTNGESTADWAKNLNREDFRLLCLDGTRKPVTEAQSCHLAVAPNHAVVSRSDRAAHVKQVLLHQQALFGKNGKNCPDKFCLFKSETKNLLFNDNTECLAKLGGRPTYEEYLGTEYVTAIANLKKCSTSPLLEACAFLTR
Oral 300 mg/kg/day
  serum levels of IL-18 (in words): did not increase
[1]
  IL-18 Intestinal Extract % Increase Over Control: 373%
  IL-18 Serum % Increase Over Control: −5%
[2]
  IL-18 level, Intestinal Extract: 4,515 pg
  IL-18 level, Serum: 134 pg
Oral 300 mg/kg/day, compared with rhLF
  intestinal IL-18 levels (in words): lesser increase

Reference: patent US20100137208A1, “INTRATUMORALLY ADMINISTERED LACTOFERRIN IN THE TREATMENT OF MALIGNANTNEOPLASMS AND OTHER HYPERPROLIFERATIVE DISEASES” (priority 2002, published 2010)
